B1: GS2297: dsRNA trigger targeting B. cinerea Bcrpb5 (XM_024693733.1); trigger SEQ ID NO 23, RNA 35, reverse complement 47 (nucleic acid, listed as Botrytis cinerea)
sense: UGCACCAUCAGGUCCCGCUCAAAAGAUUAUUCCCGCUGUCGCAUCCGAGACAAGAAUCGAGACCUUCGUCGAGCAAGAUUUACUUGUCAAUAUUACACAUCAUGAAUUGGUUCCCAAGCAUGUUUUGUUAAGUAGAGAAGAGAGGGCCAAGUUGUUGUCAAGAUAUAGAUUGAAGGAUACUCAACUCCCACGUAUUCAGGCUGCGGAUCCAGUUGCAAAAUAUUUGGGAUUGAGAAGAGGGCAGGUCGUUAAGAUUAUCAGAAAGUCGGAAACUGCUGGUCGUUAUGCCAGUUACAGAUUGUGCGUAUAAUGGAGCUGGAGGGUAGAUGAUUUGGUGUUAAUAACUAGGGAGUUUCUUGGGAAAAAUUUGCAUAUUUGGGGAAGGCGUAAUAGGCUGGAAGAAAGACUGAGGAUGAGAUUGUCUAUUUUGGCUUUCCAGGAAGCAAUACUUUGAGACAUGAAAUUUGAUAUUAAAUUUCUUGUUCUGUAUAUUUCUGAUAGUUUCAGAGCUUUUCAAUAAGAUCUAUUCUACAGUUUUAAGAAUCCAGACUCACCCUUUGAGAAGCUCAUACAAAGUUCCUUCCUA
antisense: UAGGAAGGAACUUUGUAUGAGCUUCUCAAAGGGUGAGUCUGGAUUCUUAAAACUGUAGAAUAGAUCUUAUUGAAAAGCUCUGAAACUAUCAGAAAUAUACAGAACAAGAAAUUUAAUAUCAAAUUUCAUGUCUCAAAGUAUUGCUUCCUGGAAAGCCAAAAUAGACAAUCUCAUCCUCAGUCUUUCUUCCAGCCUAUUACGCCUUCCCCAAAUAUGCAAAUUUUUCCCAAGAAACUCCCUAGUUAUUAACACCAAAUCAUCUACCCUCCAGCUCCAUUAUACGCACAAUCUGUAACUGGCAUAACGACCAGCAGUUUCCGACUUUCUGAUAAUCUUAACGACCUGCCCUCUUCUCAAUCCCAAAUAUUUUGCAACUGGAUCCGCAGCCUGAAUACGUGGGAGUUGAGUAUCCUUCAAUCUAUAUCUUGACAACAACUUGGCCCUCUCUUCUCUACUUAACAAAACAUGCUUGGGAACCAAUUCAUGAUGUGUAAUAUUGACAAGUAAAUCUUGCUCGACGAAGGUCUCGAUUCUUGUCUCGGAUGCGACAGCGGGAAUAAUCUUUUGAGCGGGACCUGAUGGUGCA
B2: GS2280: dsRNA trigger targeting B. cinerea Bcmcm4 (XM_024696090.1); trigger SEQ ID NO 21, RNA 33, reverse complement 45 (nucleic acid, listed as Botrytis cinerea)
sense: AAUGUCCUCGUCCGGUUUGUAAAUCUCCAAACUCCAUGCAGAUUGUACACAACAGGUCUGGAUUCAUGGAUAAGCAAGUUAUCAAGCUUCAAGAAACUCCAGAUUCCGUUCCUGCUGGUCAAACACCACAUUCCGUCUCGAUGUGUGCAUAUGAUGAGUUGGUGGAUCUGUGCAAAGCUGGUGACAGAGUUGAGAUUACUGGUAUCUUCAAAGCUAGUCCAGUUCGUGUCAAUCCUCGCCAAAGAACUCUCAAAAGCAUUUAUAAAACGUACAUCGACGUUUUACACAUUCAAAAGGUUGACAAGAAAAGAAUGGGAAUUGAUGCUUCGACCGUUGAGCAAGAAAUAUCCGAUCAGUUGACAGGCAACAUUGAAGAAACUAGAAAGGUUUCUGAAGAGGAGGAAGAAAAAAUCAGAGAAACCGCUGCAAGACCCGAUAUCUACGAACUUCUAUCUCGAUCCCUCGCACCUAGUAUUUUUGAGAUGGACGAUGUUAAGAAGGGUAUCUUGCUUCAAUUAUUUGGUGGAACUAACAAGUCUUUCGAAAAAGGAGGAAGUCCAAAAUACAGAGGAGAUAUCAAUAUUCUAUUGU
antisense: ACAAUAGAAUAUUGAUAUCUCCUCUGUAUUUUGGACUUCCUCCUUUUUCGAAAGACUUGUUAGUUCCACCAAAUAAUUGAAGCAAGAUACCCUUCUUAACAUCGUCCAUCUCAAAAAUACUAGGUGCGAGGGAUCGAGAUAGAAGUUCGUAGAUAUCGGGUCUUGCAGCGGUUUCUCUGAUUUUUUCUUCCUCCUCUUCAGAAACCUUUCUAGUUUCUUCAAUGUUGCCUGUCAACUGAUCGGAUAUUUCUUGCUCAACGGUCGAAGCAUCAAUUCCCAUUCUUUUCUUGUCAACCUUUUGAAUGUGUAAAACGUCGAUGUACGUUUUAUAAAUGCUUUUGAGAGUUCUUUGGCGAGGAUUGACACGAACUGGACUAGCUUUGAAGAUACCAGUAAUCUCAACUCUGUCACCAGCUUUGCACAGAUCCACCAACUCAUCAUAUGCACACAUCGAGACGGAAUGUGGUGUUUGACCAGCAGGAACGGAAUCUGGAGUUUCUUGAAGCUUGAUAACUUGCUUAUCCAUGAAUCCAGACCUGUUGUGUACAAUCUGCAUGGAGUUUGGAGAUUUACAAACCGGACGAGGACAUU
B3: GS730: dsRNA trigger targeting B. cinerea Bcsec15 (XM_024692064.1); trigger SEQ ID NO 19, RNA 31, reverse complement 43 (nucleic acid, listed as Botrytis cinerea)
sense: UCAACGCAGUCUCCAAAGCUUUGGAUGAAUUCGAUAACCCGGAUGUUAUUCUGCAAACCAAGAAUGUGAUAGCAUUGUUCAUCCAAACAAUGGAGGGUUGGGGAUAUUCAGUUGCCAUAUUAGAUGCUUAUGUGCUUAAGCUUUUCUAUAGAUAUGCUGAUUUGUUAAAACGGAAAUUCAGCACAGAUUUUCAACAGAUUGUGUCUACCGAUGAAUACAUGCCUAUGCCUGUCAAUAGCGAAGAAGACUUUGAUAAAAUCAUUCAAGUCAGUUGGUAUGUUCCGGACAGACCGAAAGAAGAAUACACAUUCCCCGGUGUAUUACCAUUCUCCCAGAUGUACCCAAUGUGCUGUAUAGAUAUCAGAAAUUUCCUGAAUCGAUUCUACUUCAUAAUGGAUGAUCAUUUUCAACAGCCAAACAUUAUUGAUGAGACACUUAAGAAGUCGAUAGAUGAGCUUCUGUCUGAGGAUAUUUGUGA
antisense: UCACAAAUAUCCUCAGACAGAAGCUCAUCUAUCGACUUCUUAAGUGUCUCAUCAAUAAUGUUUGGCUGUUGAAAAUGAUCAUCCAUUAUGAAGUAGAAUCGAUUCAGGAAAUUUCUGAUAUCUAUACAGCACAUUGGGUACAUCUGGGAGAAUGGUAAUACACCGGGGAAUGUGUAUUCUUCUUUCGGUCUGUCCGGAACAUACCAACUGACUUGAAUGAUUUUAUCAAAGUCUUCUUCGCUAUUGACAGGCAUAGGCAUGUAUUCAUCGGUAGACACAAUCUGUUGAAAAUCUGUGCUGAAUUUCCGUUUUAACAAAUCAGCAUAUCUAUAGAAAAGCUUAAGCACAUAAGCAUCUAAUAUGGCAACUGAAUAUCCCCAACCCUCCAUUGUUUGGAUGAACAAUGCUAUCACAUUCUUGGUUUGCAGAAUAACAUCCGGGUUAUCGAAUUCAUCCAAAGCUUUGGAGACUGCGUUGA
B4: GS2303: dsRNA trigger targeting B. cinerea Bcded1 (XM_001550339.2); trigger SEQ ID NO 24, RNA 36, reverse complement 48 (nucleic acid, listed as Botrytis cinerea)
sense: GGGCUAUAUAAGCUUUCAUCUAGGUUUUCCAAGAAACGCAUUACGAUAGACAUGUUCUCCAAAAAUCUUACUGGUCCUGCUUUCAGCAUUUCCAUGGAUCAUGAAGUCCUCCACUAUGGAAGAUUUGCAAAAUAUUUUCGACAUUGCAUUUUGCUGCAUUUCGCAUUUCUAGAUAGAAAAAAAGUGGGAUUCAUAUUCUCGAUAUUUUCUUCGUUGUCUUUUAUUCACAAGACACAUGGCAAGGGAGGAUACCAUUUGAGAGCUUGAAUUGAAGGCUUUCCUCUUACUUUUUUUAUUUUUCACAUCAUCUACGAGUGGGCGUCUUUUACGAUCAAAUCGAUAUACGACAGUGGCACAAAAUAGAAUAGGCAUUUCUCUUCUUAAAAAAGAUUUAAGGGAAGAGUUGGUGCUUGUUCUCUAUAACGCUGAUGGCAUUCGGAAGUGCUCCUGUCCAUUCAGGCUGAGACUGAGACCCAAAAUGUUGGCAGGUACGGCAGAAAGAAGUCUGCUUCAUAUGAUUGAUGGAGGAAGAAAGAAAUAUGGAAUGCGAUGGAUGAGUAAUUACUUUAAAUGAAUAUGAAAA
antisense: UUUUCAUAUUCAUUUAAAGUAAUUACUCAUCCAUCGCAUUCCAUAUUUCUUUCUUCCUCCAUCAAUCAUAUGAAGCAGACUUCUUUCUGCCGUACCUGCCAACAUUUUGGGUCUCAGUCUCAGCCUGAAUGGACAGGAGCACUUCCGAAUGCCAUCAGCGUUAUAGAGAACAAGCACCAACUCUUCCCUUAAAUCUUUUUUAAGAAGAGAAAUGCCUAUUCUAUUUUGUGCCACUGUCGUAUAUCGAUUUGAUCGUAAAAGACGCCCACUCGUAGAUGAUGUGAAAAAUAAAAAAAGUAAGAGGAAAGCCUUCAAUUCAAGCUCUCAAAUGGUAUCCUCCCUUGCCAUGUGUCUUGUGAAUAAAAGACAACGAAGAAAAUAUCGAGAAUAUGAAUCCCACUUUUUUUCUAUCUAGAAAUGCGAAAUGCAGCAAAAUGCAAUGUCGAAAAUAUUUUGCAAAUCUUCCAUAGUGGAGGACUUCAUGAUCCAUGGAAAUGCUGAAAGCAGGACCAGUAAGAUUUUUGGAGAACAUGUCUAUCGUAAUGCGUUUCUUGGAAAACCUAGAUGAAAGCUUAUAUAGCCC

Experiments:
[1] = tested on: Botrytis cinerea B05.10 isolate; test: Greenhouse whole plant assay (tomato 'Lanai', disease severity); assay type: in vivo; details: final rating day (rating #3)
Botrytis = test: Open-air field trial on strawberry (Example 4.1, AUDPC of % disease severity); assay type: in vivo, Botrytis cinerea; details: GS730 100 g ai/ha, FIG. 6
Protocol: RNAi compositions, each containing a dsRNA comprising a trigger sequence (GS349 or GS730) described herein were evaluated for ability to control botrytis on strawberry in open-air field trials. Non-formulated (dissolved in water) GS349 and GS730 were each tank mixed with water and the standard adjuvant Silwet L-77 0.1% v/v. GS349 was tested at concentrations of 25 grams of active ingredient per hectare (g ai/ha) and 50 g ai/ha and GS730 was tested at a concentration of 100 g ai/ha. Serenade ASO 85 g ai/ha, a standard biological fungicide, was used as a positive control. A second positive control group was treated with alternating applications of the chemical standards Teldor Plus 750 g ai/ha, Signum 600 g ai/ha, and Switch 500 g ai/ha. The trial also included an untreated group as a negative control.
Test compositions and positive controls were sprayed onto strawberry plants in 12 applications. Plants were observed beginning 14 days after the first application and disease progress was assessed by determining the percentage of surface area of fruit that was affected by the disease (% Disease Severity). Disease severity was plotted over the length of the trial observations and area under disease progress curve (AUDPC) was calculated in order to measure the cumulative effect of the various treatments across multiple assessments. Means were separated according to Fisher's LSD, alpha (p)≤0.05.

[2] = 8 g ai/ha, three runs, four-week-old 'Lanai' tomato plant
[3] = 25 g ai/ha, three runs, four-week-old 'Lanai' tomato plant

| Molecule | % control [1, 2] [%] | % control [1, 3] [%] | % control ([1]; 8 g ai/ha, two runs, three-week-old 'Lanai' tomato plant) [%] | % control ([1]; 25 g ai/ha, two runs, three-week-old 'Lanai' tomato plant) [%] | Disease control compared with the biological standard, Serenade (AUDPC) (Botrytis; GS349 25 g ai/ha, Serenade ASO 85 g ai/ha) | Control of Botrytis vs. the untreated control (AUDPC) (Botrytis; non-formulated, Silwet L-77 0.1% v/v, 12 applications, GS349 25 and 50 g ai/ha) |
| --- | --- | --- | --- | --- | --- | --- |
| B1 | 6 | 29 | – | – | – | – |
| B2 | 0 | 36 | – | – | – | – |
| B3 | – | – | 61 | 58 | not significantly different | significant control |
| B4 | 0 | 34 | – | – | – | – |

From patent US20230189818A1, “RNA-BASED CONTROL OF BOTRYTIS” (priority 2021, published 2023)
